Test results from patent US20120114682A1 (GEORGIA TECH RESEARCH, published 2012).
One block for each binder: values may come before it. Where no end group is shown, it is not given here.

How the values were obtained:
Fibrinogen fragment D [1] = biological target: T1, Fibrinogen fragment D (human, UniProt P02671 130-216; P02675 164-491; P02679 114-432, limits assumed); experiment: SPR competition with GPRP-FnIII9-10 on immobilised fragment D
T1 construct: domain: Fragment D (or D-domain); Made by plasmin digestion of human fibrinogen and purified on GPRPAA beads; holds the C-terminal polymerization pockets without the N-terminal knobs; immobilised by amine coupling on the SPR chip; also called D-domain
T1 sequence (looked up) 1: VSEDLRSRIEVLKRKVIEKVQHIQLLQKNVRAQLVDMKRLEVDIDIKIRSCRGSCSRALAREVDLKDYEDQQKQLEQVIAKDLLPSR
T1 sequence (looked up) 2: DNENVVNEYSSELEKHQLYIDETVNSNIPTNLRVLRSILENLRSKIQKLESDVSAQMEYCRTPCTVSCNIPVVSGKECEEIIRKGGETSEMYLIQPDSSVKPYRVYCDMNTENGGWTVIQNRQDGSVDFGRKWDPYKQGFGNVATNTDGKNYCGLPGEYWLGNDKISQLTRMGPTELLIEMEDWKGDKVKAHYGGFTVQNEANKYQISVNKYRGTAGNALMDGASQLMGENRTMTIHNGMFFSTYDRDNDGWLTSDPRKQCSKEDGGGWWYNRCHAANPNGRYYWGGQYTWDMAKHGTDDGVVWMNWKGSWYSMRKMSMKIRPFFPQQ
T1 sequence (looked up) 3: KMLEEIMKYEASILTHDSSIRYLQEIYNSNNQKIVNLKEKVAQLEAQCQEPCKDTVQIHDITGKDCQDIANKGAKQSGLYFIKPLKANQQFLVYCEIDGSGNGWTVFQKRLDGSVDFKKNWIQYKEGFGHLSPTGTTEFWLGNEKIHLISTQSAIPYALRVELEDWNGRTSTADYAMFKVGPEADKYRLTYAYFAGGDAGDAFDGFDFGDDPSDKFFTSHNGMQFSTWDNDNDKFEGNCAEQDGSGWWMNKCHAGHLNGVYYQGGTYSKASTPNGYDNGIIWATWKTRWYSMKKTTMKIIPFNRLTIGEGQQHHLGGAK

Fibrinogen fragment D [2] = biological target: T1, Fibrinogen fragment D; experiment: affinity purification from plasmin-digested fibrinogen, elution with 1 M sodium bromide
Description: Human fibrinogen (# FIB3, Enzyme Research Laboratories, South Bend, Ind.) at 2 mg/mL was digested with 0.1 U/mL human plasmin (Enzyme Research Laboratories) in HEPES+Ca buffer (150 mM NaCl, 5 mM CaCl₂, 25 mM HEPES, pH 7.4) overnight at room temperature. Fragment D (or D-domain) was isolated as previously described, with slight modifications, using a polymeric resin with covalently linked GPRPAA (SEQ ID NO:10) peptide (Kostelansky M S, et al. Biochemistry 2002, 41(40):12124-12132). Briefly, the plasmin-digested fibrinogen and GPRPAA-beads were incubated for 30 min, with occasional agitation. The unbound protein fragments were removed with exhaustive washing with HEPES+Ca buffer. Fragment D was eluted using 1 M sodium bromide, 50 mM sodium acetate, pH 5.3 and exchanged back into HEPES+Ca buffer using a centrifugal filter with MWCO 10,000.

binding result (Fibrinogen fragment D [1]): binds
B1: GPRP tetrapeptide (peptide)
peptide: GPRP
notes: Synthetic (Genscript); also called A-knob tetrapeptide mimetic; soluble GPRP peptide

binding result (Fibrinogen fragment D [2]): binds
B2: GPRPAA peptide covalently linked to a polymeric resin (peptide)
peptide: GPRPAA
modifications: not fully specified
notes: also called GPRPAA-beads
